T1: Exd/Hth-HM (UniProt P40427;O46339 1-376;127-211)
T1 sequence 1: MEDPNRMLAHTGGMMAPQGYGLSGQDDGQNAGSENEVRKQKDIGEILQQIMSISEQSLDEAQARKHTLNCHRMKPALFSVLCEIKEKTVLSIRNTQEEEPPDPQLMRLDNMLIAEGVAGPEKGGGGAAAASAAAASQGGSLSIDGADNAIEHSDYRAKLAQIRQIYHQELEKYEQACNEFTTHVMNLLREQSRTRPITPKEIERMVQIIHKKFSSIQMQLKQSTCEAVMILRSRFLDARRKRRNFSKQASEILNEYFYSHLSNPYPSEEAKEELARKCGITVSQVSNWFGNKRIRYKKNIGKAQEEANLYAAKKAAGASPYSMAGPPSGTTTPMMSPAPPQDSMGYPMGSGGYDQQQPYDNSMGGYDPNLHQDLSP
T1 sequence 2: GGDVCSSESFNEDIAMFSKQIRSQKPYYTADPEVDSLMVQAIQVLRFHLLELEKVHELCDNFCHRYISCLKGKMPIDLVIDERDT


Experiments:
AbdA (Hox);Grh = AbdA (Hox);Grh (Drosophila melanogaster?;Drosophila …, UniProt P29555;P13002 261-590;551-1333, |); assay: EMSA; 'compromised'; later 'abolished completely'; EMSA, 20 ul, 30 min, room temperature; 5X buffer as printed: 20% glycerol, 1 mg/ml BSA, 2.5 mM EDTA, '50mM 1M tris' pH 7.5, 50 mM KCl, 5 mM MgCl2, 2.5 mM DTT, 90 ug/ml poly(dI-dC); proteins 100-200 ng; conditions: protein: recombinant;recombinant; tags: 6xHis;6xHis; copies: 1;2
[1] = molecular target: AbdA (Hox);Exd/Hth-HM;Grh (Drosophila melanogaster?;Drosophila …, UniProt P29555;P40427;O46339;P13002 261-590;1-376;127-211;551-1333, ||); assay: EMSA; EMSA, 20 ul, 30 min, room temperature; 5X buffer as printed: 20% glycerol, 1 mg/ml BSA, 2.5 mM EDTA, '50mM 1M tris' pH 7.5, 50 mM KCl, 5 mM MgCl2, 2.5 mM DTT, 90 ug/ml poly(dI-dC); proteins 100-200 ng; conditions: protein: recombinant;recombinant;recombinant; tags: 6xHis;6xHis;6xHis; copies: 1;1;1;2
AbdA (Hox);Exd/Hth-HM = AbdA (Hox);Exd/Hth-HM (Drosophila melanogaster?;Drosophila …, UniProt P29555;P40427;O46339 261-590;1-376;127-211, |); assay: as above; conditions: protein: recombinant;recombinant; tags: 6xHis;6xHis; copies: 1;1;1
Exd/Hth-HM = molecular target: T1, Exd/Hth-HM; assay: EMSA; no significant binding; EMSA, 20 ul, 30 min, room temperature; 5X buffer as printed: 20% glycerol, 1 mg/ml BSA, 2.5 mM EDTA, '50mM 1M tris' pH 7.5, 50 mM KCl, 5 mM MgCl2, 2.5 mM DTT, 90 ug/ml poly(dI-dC); proteins 100-200 ng; conditions: protein: recombinant; tags: 6xHis; copies: 1;1
AbdA (Hox) = AbdA (Hox) (UniProt P29555 261-590); assay: as above; conditions: protein: recombinant; tags: 6xHis
Grh = Grh (UniProt P13002 551-1333); assay: EMSA; EMSA, 20 ul, 30 min, room temperature; 5X buffer as printed: 20% glycerol, 1 mg/ml BSA, 2.5 mM EDTA, '50mM 1M tris' pH 7.5, 50 mM KCl, 5 mM MgCl2, 2.5 mM DTT, 90 ug/ml poly(dI-dC); proteins 100-200 ng; conditions: protein: recombinant; tags: 6xHis; chain copies: 2
Grh, sequence (P13002 551-1333): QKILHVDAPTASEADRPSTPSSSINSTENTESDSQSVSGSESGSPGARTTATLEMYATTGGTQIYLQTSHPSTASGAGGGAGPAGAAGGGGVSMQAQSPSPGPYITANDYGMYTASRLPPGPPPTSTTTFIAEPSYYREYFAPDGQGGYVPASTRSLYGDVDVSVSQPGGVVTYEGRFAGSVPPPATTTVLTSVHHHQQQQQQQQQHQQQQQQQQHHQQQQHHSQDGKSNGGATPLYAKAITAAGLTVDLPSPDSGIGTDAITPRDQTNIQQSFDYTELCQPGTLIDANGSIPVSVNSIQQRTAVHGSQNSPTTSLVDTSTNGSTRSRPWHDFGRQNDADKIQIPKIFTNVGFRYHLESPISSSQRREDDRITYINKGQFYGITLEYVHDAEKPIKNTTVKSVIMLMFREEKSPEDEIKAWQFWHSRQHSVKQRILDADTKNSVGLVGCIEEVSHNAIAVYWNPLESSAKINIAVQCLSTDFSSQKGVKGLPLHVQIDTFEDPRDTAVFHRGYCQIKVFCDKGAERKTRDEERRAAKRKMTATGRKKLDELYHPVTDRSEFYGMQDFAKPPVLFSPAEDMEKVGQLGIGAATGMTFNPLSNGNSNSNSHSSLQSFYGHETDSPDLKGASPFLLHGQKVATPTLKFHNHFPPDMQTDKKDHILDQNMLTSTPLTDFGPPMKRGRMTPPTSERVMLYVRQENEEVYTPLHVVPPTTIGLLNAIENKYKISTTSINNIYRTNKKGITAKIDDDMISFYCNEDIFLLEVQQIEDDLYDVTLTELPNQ

AbdA (Hox);Exd/Hth-HM, sequence (P29555 261-590, one chain of several): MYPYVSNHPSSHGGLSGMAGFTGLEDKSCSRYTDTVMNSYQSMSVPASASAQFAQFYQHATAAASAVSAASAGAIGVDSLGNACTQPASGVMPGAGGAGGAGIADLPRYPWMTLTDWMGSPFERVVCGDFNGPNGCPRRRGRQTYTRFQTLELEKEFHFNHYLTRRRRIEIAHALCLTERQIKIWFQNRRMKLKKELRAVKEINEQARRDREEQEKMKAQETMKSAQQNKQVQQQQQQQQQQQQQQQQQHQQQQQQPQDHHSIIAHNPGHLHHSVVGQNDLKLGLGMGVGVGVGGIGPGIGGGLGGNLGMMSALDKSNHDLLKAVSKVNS
AbdA (Hox), sequence (P29555 261-590): as the sequence (P29555 261-590, one chain of several) above
AbdA (Hox);Exd/Hth-HM;Grh, sequence (P29555 261-590, chain 1 of 4, one chain of several): as the sequence (P29555 261-590, one chain of several) above
AbdA (Hox);Exd/Hth-HM;Grh, sequence (P13002 551-1333, chain 4 of 4, one chain of several): as the sequence (P13002 551-1333) above
AbdA (Hox);Grh, sequence (P29555 261-590, chain 1 of 2): as the sequence (P29555 261-590, one chain of several) above
AbdA (Hox);Grh, sequence (P13002 551-1333, chain 2 of 2): as the sequence (P13002 551-1333) above

Binder	binding result (AbdA (Hox);Grh)	binding result [1]	binding result (AbdA (Hox);Exd/Hth-HM)	binding result (Exd/Hth-HM)	binding result (AbdA (Hox))	binding result (Grh)
motif-30 Grh1 mutant (dsDNA) DNA 1: GAAACACGATAACCATAACTAATCC DNA 2: GGATTAGTTATGGTTATCGTGTTTC	no binding	no binding	binds	–	–	–
motif-24 (dsDNA) DNA 1: CGCTCATAAAGTTAACCAACGATTTCATTCCTAAAC DNA 2: GTTTAGGAATGAAATCGTTGGTTAACTTTATGAGCG	–	–	binds	no binding	no binding	no binding
